In patent publication US6943279B1, “Amino polyol amine oxidase polynucleotides and related polypeptides and methods of use” (priority 1999, dated 2005):
Like-named read-outs stand apart in the source and are kept apart here.

How the values were obtained:
APAO = APAO activity of crude cell-free extract, TLC; format: biochemical, Exophiala spinifera; settings: for modification by the crude extract: crude cell-free extract of induced Exophiala spinifera, TLC
Description: For analysis of APAO activity, an alternative method was used. Equal volumes of sample and ^14C-AP1 (1 mg/ml, pH 8, 50 mM sodium phosphate) were incubated at room temperature for one to six days. Analytical thin-layer chromatography was then carried out on C60 HPK silica gel plates (Whatman #4807-700; 10×10 cm; 0.2 mm thick). After application of from 0.1 to 2 μl of aqueous sample, the plates were air-dried and developed in CHCl3:MeOH:CH3COOH:H20 (55:36:8:1). Plates were then air dried, and exposed to Phosphorlmager screen (Molecular Dynamics) or autoradiographic film. A Storm™ Phosphorlmager (Molecular Dynamics) was used to scan the image produced on the screen.
A cell-free extract that contains the deaminase activity was obtained by subjecting substrate-induced Exophiala spinifera cells to disruption using a Bead Beater™ in 50 mM Na-phosphate, pH 8.0, and recovering the cell-free supernatant by centrifugation and 0.45 micron filtration. Catabolic activity is assayed by incubating extracts with AP1 (hydrolyzed fumonisin BI backbone) or “^4C-labelled AP1 with the extract and evaluating by TLC on C18 or C60 silica. […] Other amine-containing substrates were tested for modification by the crude extract. […] Preparative amounts of the product, named 2-OP, have also been purified and analyzed by C13 nmr.

APAO enzyme = format: biochemical, Exophiala spinifera
Description: The following assay was used to determine the substrate specificity of the APAO enzyme. […] The APAO enzyme was recombinant enzyme produced,as GST fusion in E. coli, purified over a glutathione affinity column and cleaved with thrombin to remove the GST. All components were mixed at room temperature. The initial rate was determined in a spectrophotometer at 572 nm over one minute by absorbance units/second (BLANK). Ten microliters of APAO at 70 ug/ml was added and mixed. The initial rate was again determined at 572 nm over one minute in absorbance units/second (SAMPLE). The rates were converted to absorbance units/minute. The BLANK value was subtracted from the SAMPLE value. The absorbance units were converted to μM H2O2 wherein 1 μM H2O2 equals 0.138 absorbance units at pH 8.0.

[1] = Mutated APAO lysates from E coli, Amplex Red assay, substrate AP1; format: biochemical
Description: The following assay was used to determine the substrate specificity of the APAO enzyme. Reaction mix: 436 μl of 200 mM Na-phosphate, pH8.0; 50 μl substrate (10 mM); 2 μl Amplex Red (1 mg in 200 μl DMSO); and 2 μof Peroxidase (5000 U/ml). The APAO enzyme was recombinant enzyme produced,as GST fusion in E. coli, purified over a glutathione affinity column and cleaved with thrombin to remove the GST. All components were mixed at room temperature. The initial rate was determined in a spectrophotometer at 572 nm over one minute by absorbance units/second (BLANK). Ten microliters of APAO at 70 ug/ml was added and mixed. The initial rate was again determined at 572 nm over one minute in absorbance units/second (SAMPLE). The rates were converted to absorbance units/minute. The BLANK value was subtracted from the SAMPLE value. The absorbance units were converted to μM H2O2 wherein 1 μM H2O2 equals 0.138 absorbance units at pH 8.0.
The APAO molecules mutated at specific cysteines were tested in a bacterial expression system using the previously described Amplex Red assay. The results can be seen in the table below entitled “Cys(−) APAO lysates from E. coli.” The mutated APAO molecules can then be tested in maize, linked to a signal peptide, as previously described. Either one of the cysteines or two or three together could be mutated to serines without any measured loss in APAO enzyme activity of the E coli-expressed enzyme. […] The mutated versions of APAO operably linked to a signal sequence, which retain function when expressed as recombinant fusion proteins in E. coli may also provide additional stability or foldability when expressed in plants or other secretion expression systems.

[2] = Mutated APAO lysates from E coli, Amplex Red assay, substrate FB1; format: biochemical
[3] = Mutated APAO lysates from E coli, Amplex Red assay, substrate AP1; format: biochemical; settings: Glyc(−) APAO lysates from E coli
[4] = 0.5 mg/mL substrate, pH 8.0, room temperature
[5] = 1 mM substrate, pH 8.0, room temperature
[6] = Cys(−) APAO lysates from E coli
[7] = Triple Cys(−) APAO lysates from E coli
[8] = Glyc(−) APAO lysates from E coli

Molecule: CCCCCCCCCCCCC/C=C/[C@@H](O)[C@@H](N)CO [sphingosine]
- modification by the crude extract (APAO): apparently not modified

Molecule: CCCCCCCCCCCCCCC[C@@H](O)[C@@H](N)CO [sphinganine]
- modification by the crude extract (APAO): apparently not modified

Molecule: CCCCCCCCCCCCCC[C@@H](O)[C@@H](O)[C@@H](N)CO [phytosphingosine]
- modification by the crude extract (APAO): apparently not modified

Molecule: NCCc1ccc(O)c(O)c1 [dopamine]
- RATE (APAO enzyme; pH 8): 0.0040 μM H2O2/min

Molecule: CCCC[C@@H](C)[C@@H](OC(=O)C[C@@H](CC(=O)O)C(=O)O)[C@H](C[C@@H](C)CCCCCC[C@@H](O)C[C@H](O)[C@H](C)N)OC(=O)C[C@@H](CC(=O)O)C(=O)O [Fumonisin B2]
- RATE (APAO enzyme; [4]): 0.3058 μM H2O2/min

Molecule: NCCCNCCCCNCCCN [spermine]
- RATE (APAO enzyme; pH 8): 0.0002 μM H2O2/min

Molecule: CCCC[C@@H](C)[C@@H](OC(=O)C[C@@H](CC(=O)O)C(=O)O)[C@H](C[C@@H](C)C[C@H](O)CCCCCC[C@H](O)[C@H](C)N)OC(=O)C[C@@H](CC(=O)O)C(=O)O [Fumonisin B3]
- RATE (APAO enzyme; [5]): 0.1449 μM H2O2/min

Molecule: NC[C@H](O)c1ccc(O)c(O)c1 [norepinephrine]
- RATE (APAO enzyme; [5]): 0.0087 μM H2O2/min

Molecule: CNC[C@H](O)c1ccc(O)c(O)c1 [epinephrine]
- RATE (APAO enzyme; pH 8): 0.0071 μM H2O2/min

Molecule: CCCC[C@@H](C)[C@@H](OC(=O)C[C@@H](CC(=O)O)C(=O)O)[C@H](C[C@@H](C)CCCCCCCC[C@H](O)[C@H](C)N)OC(=O)C[C@@H](CC(=O)O)C(=O)O [Fumonisin B4]
- RATE (APAO enzyme; [4]): 0.1728 μM H2O2/min

B1: APAO: amino polyol amine oxidase from Exophiala spinifera, ATCC 74269 (SEQ ID NO: 23) (protein, listed as Exophiala spinifera)
chain: MALAPSYINPPNVASPAGYSHVGVGPDGGRYVTIAGQIGQDASGVTDPAYEKQVAQAFANLRACLAAVGATSNDVTKLNYYIVDYAPSKLTAIGDGLKATFALDRLPPCTLVPVSALSSPEYLFEVDATALVPGHTTPDNVADVVVVGAGLSGLETARKVQAAGLSCLVLEAMDRVGGKTLSVQSGPGRTTINDLGAAWINDSNQSEVSRLFERFHLEGELQRTTGNSIHQAQDGTTTTAPYGDSLLSEEVASALAELLPVWSQLIEEHSLQDLKASPQAKRLDSVSFAHYCEKELNLPAVLGVANQITRALLGVEAHEISMLFLTDYIKSATGLSNIFSDKKDGGQYMRCKTGMQSICHAMSKELVPGSVHLNTPVAEIEQSASGCTVRSASGAVFRSKKVVVSLPTTLYPTLTFSPPLPAEKQALAENSILGYYSKIVFVWDKPWWREQGFSGVLQSSCDPISFARDTSIDVDRQWSITCFMVGDPGRKWSQQSKQVRQKSVWDQLRAAYENAGAQVPEPANVLEIEWSKQQYFQGAPSAVYGLNDLITLGSALRTPFKSVHFVGTETSLVWKGYMEGAIRSGQRGAAEVVASLVPAA
- AP1 catabolic activity after heating (APAO; following 30 min. at 65° C. or 100° C.): no AP1 catabolic activity remained
- activity on intact FB1 (APAO; partially purified APAO enzyme from Exophiala spinifera): little or no activity
- activity on intact FB1 and other B-series fumonisins (APAO enzyme; recombinant APAO enzyme expressed in E. coli): significant but reduced activity
- Conclusion [1, 6]: Active (wild type)
- M H2O2/min [1, 6]: 2.14 μM H2O2/min
- Conclusion [1, 7]: Active (wild type)
- M H2O2/min [1, 7]: 1.16 μM H2O2/min
- Conclusion [2, 6]: Slightly active (wt)
- M H2O2/min [2, 6]: 0.11 μM H2O2/min
- Conclusion [2, 8]: Slightly active (wt)
- M H2O2/min [2, 8]: 0.12 μM H2O2/min
- Conclusion [2, 7]: Slightly active (wt)
- M H2O2/min [2, 7]: 0.27 μM H2O2/min
- Conclusion [3]: Active (wild type)
- M H2O2/min [3]: 1.92 μM H2O2/min

B2: C359S, C461S: APAO mutated at both cysteines 359 and 461 (SEQ ID NO: 51), plasmid PHP16738 (protein)
chain: KDNVADVVVVGAGLSGLETARKVQAAGLSCLVLEAMDRVGGKTLSVQSGPGRTTINDLGAAWINDSNQSEVSRLFERFHLEGELQRTTGNSIHQAQDGTTTTAPYGDSLLSEEVASALAELLPVWSQLIEEHSLQDLKASPQAKRLDSVSFAHYCEKELNLPAVLGVANQITRALLGVEAHEISMLFLTDYIKSATGLSNIFSDKKDGGQYMRCKTGMQSISHAMSKELVPGSVHLNTPVAEIEQSASGCTVRSASGAVFRSKKVVVSLPTTLYPTLTFSPPLPAEKQALAENSILGYYSKIVFVWDKPWWREQGFSGVLQSSSDPISFARDTSIDVDRQWSITCFMVGDPGRKWSQQSKQVRQKSVWDQLRAAYENAGAQVPEPANVLEIEWSKQQYFQGAPSAVYGLNDLITLGSALRTPFKSVHFVGTETSLVWKGYMEGAIRSGQRGAAEVVASLVPAA
modifications: Cys (-) APAO; removal of cys 359 and 461 (Exophiala spinifera)
- Conclusion [1, 6]: Fully/More Active
- M H2O2/min [1, 6]: 3.90 μM H2O2/min
- Conclusion ([1]; Cys(−) APAO lysates from E coli, listed as C359S+C461S): more APAO activity in crude lysates than wild type enzyme
- Conclusion [2, 6]: Slightly active
- M H2O2/min [2, 6]: 0.16 μM H2O2/min

B3: C167S, C359S, C461S: triply Cys-mutated version of APAO (SEQ ID NO: 53), plasmid PHP17089 (protein)
chain: KDNVADVVVVGAGLSGLETARKVQAAGLSSLVLEAMDRVGGKTLSVQSGPGRTTINDLGAAWINDSNQSEVSRLFERFHLEGELQRTTGNSIHQAQDGTTTTAPYGDSLLSEEVASALAELLPVWSQLIEEHSLQDLKASPQAKRLDSVSFAHYCEKELNLPAVLGVANQITRALLGVEAHEISMLFLTDYIKSATGLSNIFSDKKDGGQYMRCKTGMQSISHAMSKELVPGSVHLNTPVAEIEQSASGCTVRSASGAVFRSKKVVVSLPTTLYPTLTFSPPLPAEKQALAENSILGYYSKIVFVWDKPWWREQGFSGVLQSSSDPISFARDTSIDVDRQWSITCFMVGDPGRKWSQQSKQVRQKSVWDQLRAAYENAGAQVPEPANVLEIEWSKQQYFQGAPSAVYGLNDLITLGSALRTPFKSVHFVGTETSLVWKGYMEGAIRSGQRGAAEVVASLVPAA
modifications: Cys (-) APAO; removal of cys 169, 359, and 461 (Exophiala spinifera)
- Conclusion [1, 6]: Slightly active
- M H2O2/min [1, 6]: 0.27 μM H2O2/min
- Conclusion [1, 7]: Slightly Active
- M H2O2/min [1, 7]: 0.27 μM H2O2/min
- Conclusion [2, 6]: Slightly active
- M H2O2/min [2, 6]: 0.25 μM H2O2/min
- Conclusion [2, 7]: Slightly active
- M H2O2/min [2, 7]: 0.26 μM H2O2/min

B4: C461S: APAO mutated at cysteine 461 (SEQ ID NO: 49), plasmid PHP16737 (protein)
chain: KDNVADVVVVGAGLSGLETARKVQAAGLSCLVLEAMDRVGGKTLSVQSGPGRTTINDLGAAWINDSNQSEVSRLFERFHLEGELQRTTGNSIHQAQDGTTTTAPYGDSLLSEEVASALAELLPVWSQLIEEHSLQDLKASPQAKRLDSVSFAHYCEKELNLPAVLGVANQITRALLGVEAHEISMLFLTDYIKSATGLSNIFSDKKDGGQYMRCKTGMQSICHAMSKELVPGSVHLNTPVAEIEQSASGCTVRSASGAVFRSKKVVVSLPTTLYPTLTFSPPLPAEKQALAENSILGYYSKIVFVWDKPWWREQGFSGVLQSSSDPISFARDTSIDVDRQWSITCFMVGDPGRKWSQQSKQVRQKSVWDQLRAAYENAGAQVPEPANVLEIEWSKQQYFQGAPSAVYGLNDLITLGSALRTPFKSVHFVGTETSLVWKGYMEGAIRSGQRGAAEVVASLVPAA
modifications: Cys (-) APAO; removal of cysteine 461 (Exophiala spinifera)
- Conclusion [1, 6]: Fully Active
- M H2O2/min [1, 6]: 2.25 μM H2O2/min
- Conclusion [2, 6]: Slightly active
- M H2O2/min [2, 6]: 0.14 μM H2O2/min
